Fold diff data for 1 molecule are collected here from patent US20220332804A1 (CSL INNOVATION, published 2022).

Common to all, as to assay: SPR, KD relative to WT C2;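 note: biacore SPR at 37 °C, anti-C2 mAbs captured via immobilised goat anti-human IgG, C2 alanine or serine surface mutants as analytes, 1:1 model fitted, double-referenced sensograms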
A general note: In SPR one partner is held on a chip, and binding of the other changes the refractive index at the surface.

One test has as its target T1, human C2 A470S (human, UniProt P06681 21-752).
T1 sequence: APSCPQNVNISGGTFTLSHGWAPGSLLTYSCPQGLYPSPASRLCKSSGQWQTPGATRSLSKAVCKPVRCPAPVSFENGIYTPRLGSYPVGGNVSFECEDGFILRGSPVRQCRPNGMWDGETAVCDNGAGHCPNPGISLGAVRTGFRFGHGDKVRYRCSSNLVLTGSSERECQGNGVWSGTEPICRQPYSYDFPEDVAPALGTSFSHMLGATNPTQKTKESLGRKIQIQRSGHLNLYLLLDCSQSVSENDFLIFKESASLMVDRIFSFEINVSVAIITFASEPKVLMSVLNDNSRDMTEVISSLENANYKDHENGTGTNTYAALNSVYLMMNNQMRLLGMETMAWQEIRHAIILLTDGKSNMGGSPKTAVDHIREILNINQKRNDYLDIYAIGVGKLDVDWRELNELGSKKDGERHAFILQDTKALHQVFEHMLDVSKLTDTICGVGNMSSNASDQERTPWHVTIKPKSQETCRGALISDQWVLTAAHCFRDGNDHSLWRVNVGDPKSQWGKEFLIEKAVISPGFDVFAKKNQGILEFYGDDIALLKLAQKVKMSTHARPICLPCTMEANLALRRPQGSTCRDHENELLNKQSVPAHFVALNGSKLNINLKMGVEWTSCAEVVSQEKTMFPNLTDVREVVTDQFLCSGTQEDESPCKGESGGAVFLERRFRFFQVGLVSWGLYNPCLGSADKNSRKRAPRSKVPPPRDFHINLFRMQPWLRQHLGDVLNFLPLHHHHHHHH

The target in the next test is T2, human C2 G530A (human, UniProt P06681 21-752).
T2 sequence: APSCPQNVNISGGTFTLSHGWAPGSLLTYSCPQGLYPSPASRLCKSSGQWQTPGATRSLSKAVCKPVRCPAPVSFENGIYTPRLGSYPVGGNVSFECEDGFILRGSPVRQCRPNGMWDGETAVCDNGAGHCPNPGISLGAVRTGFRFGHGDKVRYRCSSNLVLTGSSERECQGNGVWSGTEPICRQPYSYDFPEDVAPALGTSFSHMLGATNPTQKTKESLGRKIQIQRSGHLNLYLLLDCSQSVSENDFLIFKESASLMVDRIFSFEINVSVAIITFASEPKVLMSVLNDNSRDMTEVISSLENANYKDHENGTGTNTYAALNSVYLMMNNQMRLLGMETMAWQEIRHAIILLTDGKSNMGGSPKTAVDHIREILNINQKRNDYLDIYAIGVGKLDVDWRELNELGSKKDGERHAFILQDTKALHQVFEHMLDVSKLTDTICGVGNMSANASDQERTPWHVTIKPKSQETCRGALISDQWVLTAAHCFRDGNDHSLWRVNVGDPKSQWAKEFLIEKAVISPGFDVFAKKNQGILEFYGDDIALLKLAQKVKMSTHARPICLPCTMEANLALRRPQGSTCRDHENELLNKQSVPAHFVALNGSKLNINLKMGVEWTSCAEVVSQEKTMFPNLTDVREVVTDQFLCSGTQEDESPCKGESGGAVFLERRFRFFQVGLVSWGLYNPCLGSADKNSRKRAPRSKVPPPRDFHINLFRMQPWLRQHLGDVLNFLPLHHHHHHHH

The target in the next test is T3, human C2 Y702A (human, UniProt P06681 21-752).
T3 sequence: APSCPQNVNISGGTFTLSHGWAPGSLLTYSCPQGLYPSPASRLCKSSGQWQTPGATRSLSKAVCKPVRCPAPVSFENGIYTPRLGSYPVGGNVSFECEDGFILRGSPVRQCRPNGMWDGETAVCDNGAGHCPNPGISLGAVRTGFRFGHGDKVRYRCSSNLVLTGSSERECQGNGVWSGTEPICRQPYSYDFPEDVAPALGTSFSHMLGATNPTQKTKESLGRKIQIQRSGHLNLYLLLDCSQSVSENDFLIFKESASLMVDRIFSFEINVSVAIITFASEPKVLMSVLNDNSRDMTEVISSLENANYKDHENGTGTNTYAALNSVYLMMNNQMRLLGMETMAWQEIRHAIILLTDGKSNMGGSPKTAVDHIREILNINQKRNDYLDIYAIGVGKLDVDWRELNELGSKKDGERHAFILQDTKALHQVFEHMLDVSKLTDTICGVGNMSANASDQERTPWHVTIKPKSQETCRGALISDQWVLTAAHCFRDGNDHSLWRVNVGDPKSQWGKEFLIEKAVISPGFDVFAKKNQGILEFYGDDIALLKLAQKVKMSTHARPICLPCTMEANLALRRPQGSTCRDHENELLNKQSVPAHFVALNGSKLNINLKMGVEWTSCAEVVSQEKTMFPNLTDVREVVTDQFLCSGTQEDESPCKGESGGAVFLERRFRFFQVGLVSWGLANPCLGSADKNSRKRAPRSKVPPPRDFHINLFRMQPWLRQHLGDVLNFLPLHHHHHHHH

For another test, the target named is T4, human C2 L620A (human, UniProt P06681 21-752).
T4 sequence: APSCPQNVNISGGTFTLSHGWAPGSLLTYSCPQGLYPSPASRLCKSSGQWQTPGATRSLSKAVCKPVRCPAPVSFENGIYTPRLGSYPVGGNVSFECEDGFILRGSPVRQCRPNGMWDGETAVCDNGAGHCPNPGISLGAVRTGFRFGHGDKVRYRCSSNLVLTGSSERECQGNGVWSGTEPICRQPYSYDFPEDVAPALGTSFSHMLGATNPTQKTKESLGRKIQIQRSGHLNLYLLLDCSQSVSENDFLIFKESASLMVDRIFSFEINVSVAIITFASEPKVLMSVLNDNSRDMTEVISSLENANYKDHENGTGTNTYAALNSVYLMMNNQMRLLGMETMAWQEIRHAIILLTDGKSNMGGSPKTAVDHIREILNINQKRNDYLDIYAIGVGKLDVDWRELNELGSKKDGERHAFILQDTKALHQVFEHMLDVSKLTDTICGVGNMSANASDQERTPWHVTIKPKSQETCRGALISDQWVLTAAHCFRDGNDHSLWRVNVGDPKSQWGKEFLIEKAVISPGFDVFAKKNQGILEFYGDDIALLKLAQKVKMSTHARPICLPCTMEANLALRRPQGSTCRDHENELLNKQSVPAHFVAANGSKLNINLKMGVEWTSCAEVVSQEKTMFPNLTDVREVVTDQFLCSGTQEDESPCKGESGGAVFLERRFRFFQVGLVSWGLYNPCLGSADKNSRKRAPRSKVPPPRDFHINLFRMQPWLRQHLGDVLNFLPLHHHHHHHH

B1: RF16-226 (antibody, human IgG4 S228P, lambda)
heavy: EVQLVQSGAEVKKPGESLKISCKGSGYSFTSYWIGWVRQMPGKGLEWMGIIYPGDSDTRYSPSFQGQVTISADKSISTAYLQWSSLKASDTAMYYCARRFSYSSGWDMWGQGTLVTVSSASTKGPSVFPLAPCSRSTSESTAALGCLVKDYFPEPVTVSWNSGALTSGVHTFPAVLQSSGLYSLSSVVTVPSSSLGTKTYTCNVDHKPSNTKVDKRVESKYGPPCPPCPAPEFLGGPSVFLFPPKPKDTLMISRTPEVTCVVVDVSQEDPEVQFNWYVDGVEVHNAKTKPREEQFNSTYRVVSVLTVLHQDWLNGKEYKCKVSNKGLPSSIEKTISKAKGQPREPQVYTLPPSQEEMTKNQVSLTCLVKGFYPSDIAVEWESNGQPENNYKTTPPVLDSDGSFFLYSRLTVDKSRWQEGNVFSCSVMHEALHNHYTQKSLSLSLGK
light: SYELTQPPSVSVSPGQTARITCSGDALTSKYVAWYQQKSGLAPLLVIYEDTRRPSGIPAKFSGSSSGSVATLTISGAHGDDEADYYCYSTDASGHQRVFGGGTKLTVLSQPKAAPSVTLFPPSSEELQANKATLVCLISDFYPGAVTVAWKADGSPVKAGVETTKPSKQSNNKYAASSYLSLTPEQWKSHRSYSCQVTHEGSTVEKTVAPTECS
notes: pH-dependent anti-C2 antibody from a phage display library; also called WT
B1: the Fold diff with human C2 A470S was determined as 1 fold; with human C2 G530A, 2 fold; with human C2 Y702A, 11 fold; with human C2 L620A it was 1 fold.
